From patent publication US20240336909

Columns and labels:
[1] = molecular target: AxCT mask27 EGFR EH104 L041 version 1
[2] = molecular target: AxCT mask27 EGFR EH104 L072 version 1
[3] = molecular target: AxCT mask27 EGFR EH104 L058 version 1
[4] = molecular target: AxCT mask27 EGFR EH104 L062 version 1
[5] = molecular target: AxCT mask27 EGFR EH104 L059 version 1
[6] = molecular target: AxCT mask27 EGFR EH104 L068 version 1
[7] = molecular target: AxCT mask27 EpCAM H90.2 L076 version 1
[8] = molecular target: AxCT mask27 EpCAM H90.2 L064 version 1
[9] = molecular target: AxCT mask27 EGFR EH104 L066 version 1
[10] = molecular target: AxCT mask27 EpCAM H90.2 L041 version 1
[11] = molecular target: AxCT mask27 EGFR EH104 L061 version 1
[12] = molecular target: AxCT mask27 EGFR EH104 L065 version 1
[13] = molecular target: AxCT mask27 EpCAM H90.2 NCLV
[14] = molecular target: AxCT mask27 EpCAM H90.2 L043 version 1
[15] = molecular target: AxCT mask27 EGFR EH104 L043 version 1
[16] = molecular target: AxCT mask27 EGFR EH104 L054 version 1
[17] = molecular target: AxCT mask27 EGFR EH104 L056 version 1
[18] = molecular target: AxCT mask27 EGFR EH104 L055 version 1
[19] = molecular target: AxCT mask27 EGFR EH104 L001 version 1
[20] = molecular target: AxCT mask27 EGFR EH104 L070 version 1
[21] = molecular target: AxCT mask27 EGFR EH104 L071 version 1
[22] = molecular target: AxCT mask27 EpCAM H90.2 L073 version 1
[23] = molecular target: AxCT mask27 EGFR EH104 L057 version 1
[24] = molecular target: AxCT mask27 EGFR EH104 L073 version 1
[25] = molecular target: AxCT mask27 EpCAM H90.2 L075 version 1
[26] = molecular target: AxCT mask27 EGFR EH104 L064 version 1
[27] = molecular target: AxCT mask27 EpCAM H90.2 L061 version 1
[28] = molecular target: AxCT mask27 EpCAM H90.2 L060 version 1
[29] = molecular target: AxCT mask27 EpCAM H90.2 L040 version 1
[30] = molecular target: AxCT mask27 EGFR EH104 L069 version 1
[31] = molecular target: AxCT mask27 EpCAM H90.2 L063 version 1
[32] = molecular target: AxCT mask27 EGFR EH104 L063 version 1
[33] = molecular target: AxCT mask27 EGFR EH104 L067 version 1
[34] = molecular target: AxCT mask27 EpCAM H90 L001 version 1
[35] = molecular target: AxCT mask27 EGFR EH104 L040 version 1
[36] = molecular target: AxCT mask27 EGFR EH104 L060 version 1
[37] = molecular target: AxCT mask27 EpCAM H90.2 L059 version 1

B1: MMP-7 (protein)
chain: YSLFPNSPKWTSKVVTYRIVSYTRDLPHITVDRLVSKALNMWGKEIPLHFRKVVWGTADIMIGFARGAHGDSYPFDGPGNTLAHAFAPGTGLGGDAHFDEDERWTDGSSLGINFLYAATHELGHSLGMGHSSDPNAVMYPTYGNGDPQNFKLSQDDIKGIQKLYGKRSNSRKK
Q: How did the Percent cleavage [1] turn out when B1 was run?
A: Its Percent cleavage is 0%.

Q: What about the Percent cleavage [2] of the same protein?
A: Its Percent cleavage is 0%.

Q: And the Percent cleavage [3]?
A: Its Percent cleavage is 0%.

Q: What about the Percent cleavage [4] of the same protein?
A: The Percent cleavage was 25%.

Q: And the Percent cleavage [5]?
A: Its Percent cleavage is 0%.

Q: And the Percent cleavage [6]?
A: Its Percent cleavage is 0%.

Q: What about the Percent cleavage [7] of the same protein?
A: Its Percent cleavage is 0%.

Q: And the Percent cleavage [8]?
A: The Percent cleavage was 32%.

Q: And the Percent cleavage [9]?
A: Its Percent cleavage is 0%.

Q: What about the Percent cleavage [10] of the same protein?
A: The Percent cleavage was 0%.

Q: And the Percent cleavage [11]?
A: Its Percent cleavage is 26%.

Q: And the Percent cleavage [12]?
A: The Percent cleavage was 60%.

Q: What about the Percent cleavage [13] of the same protein?
A: Its Percent cleavage is 0%.

Q: What about the Percent cleavage [14] of the same protein?
A: Its Percent cleavage is 0%.

Q: What about the Percent cleavage [15] of the same protein?
A: Its Percent cleavage is 0%.

Q: What about the Percent cleavage [16] of the same protein?
A: Its Percent cleavage is 24%.

Q: And the Percent cleavage [17]?
A: Its Percent cleavage is 6%.

Q: What about the Percent cleavage [18] of the same protein?
A: Its Percent cleavage is 67%.

Q: What about the Percent cleavage [19] of the same protein?
A: Its Percent cleavage is 71%.

Q: And the Percent cleavage [20]?
A: Its Percent cleavage is 9%.

Q: What about the Percent cleavage [21] of the same protein?
A: The Percent cleavage was 30%.

Q: And the Percent cleavage [22]?
A: The Percent cleavage was 43%.

Q: What about the Percent cleavage [23] of the same protein?
A: The Percent cleavage was 0%.

Q: What about the Percent cleavage [24] of the same protein?
A: Its Percent cleavage is 27%.

Q: And the Percent cleavage [25]?
A: Its Percent cleavage is 0%.

Q: What about the Percent cleavage [26] of the same protein?
A: Its Percent cleavage is 28%.

Q: And the Percent cleavage [27]?
A: The Percent cleavage was 35%.

Q: What about the Percent cleavage [28] of the same protein?
A: Its Percent cleavage is 9%.

Q: What about the Percent cleavage [29] of the same protein?
A: Its Percent cleavage is 0%.

Q: And the Percent cleavage [30]?
A: Its Percent cleavage is 0%.

Q: What about the Percent cleavage [31] of the same protein?
A: Its Percent cleavage is 48%.

Q: And the Percent cleavage [32]?
A: Its Percent cleavage is 37%.

Q: What about the Percent cleavage [33] of the same protein?
A: The Percent cleavage was 0%.

Q: And the Percent cleavage [34]?
A: The Percent cleavage was 92%.

Q: And the Percent cleavage [35]?
A: Its Percent cleavage is 0%.

Q: And the Percent cleavage [36]?
A: Its Percent cleavage is 9%.

Q: What about the Percent cleavage [37] of the same protein?
A: Its Percent cleavage is 0%.

B2: MMP-1 (protein)
chain: FVLTEGNPRWEQTHLTYRIENYTPDLPRADVDHAIEKAFQLWSNVTPLTFTKVSEGQADIMISFVRGDHRDNSPFDGPGGNLAHAFQPGPGIGGDAHFDEDERWTNNFREYNLHRVAAHELGHSLGLSHSTDIGALMYPSYTFSGDVQLAQDDIDGIQAIYGRSQNPVQPIGPQTPKACDSKLTFDAITTIRGEVMFFKDRFYMRTNPFYPEVELNFISVFWPQLPNGLEAAYEFADRDEVRFFKGNKYWAVQGQNVLHGYPKDIYSSFGFPRTVKHIDAALSEENTGKTYFFVANKYWRYDEYKRSMDPGYPKMIAHDFPGIGHKVDAVFMKDGFFYFFHGTRQYKFDPKTKRILTLQKANSWFNCRKN
Q: Which results are given for B2?
A: Percent cleavage [1]: 0%; Percent cleavage [2]: 0%; Percent cleavage [3]: 0%; Percent cleavage [4]: 0%; Percent cleavage [5]: 0%; Percent cleavage [6]: 0%; Percent cleavage [7]: 0%; Percent cleavage [8]: 0%; Percent cleavage [9]: 6%; Percent cleavage [10]: 0%; Percent cleavage [11]: 0%; Percent cleavage [12]: 10%; Percent cleavage [13]: 0%; Percent cleavage [14]: 0%; Percent cleavage [15]: 0%; Percent cleavage [16]: 0%; Percent cleavage [17]: 6%; Percent cleavage [18]: 10%; Percent cleavage [19]: 40%; Percent cleavage [20]: 0%; Percent cleavage [21]: 0%; Percent cleavage [22]: 0%; Percent cleavage [23]: 7%; Percent cleavage [24]: 0%; Percent cleavage [25]: 0%; Percent cleavage [26]: 0%; Percent cleavage [27]: 0%; Percent cleavage [28]: 0%; Percent cleavage [29]: 0%; Percent cleavage [30]: 0%; Percent cleavage [31]: 0%; Percent cleavage [32]: 0%; Percent cleavage [33]: 0%; Percent cleavage [34]: 48%; Percent cleavage [35]: 6%; Percent cleavage [36]: 0%; Percent cleavage [37]: 0%

B3: MMP-12 (protein)
chain: GPVWRKHYITYRINNYTPDMNREDVDYAIRKAFQVWSNVTPLKFSKINTGMADILVVFARGAHGDFHAFDGKGGILAHAFGPGSGIGGDAHFDEDEFWTTHSGGTNLFLTAVHEIGHSLGLGHSSDPKAVMFPTYKYVDINTFRLSADDIRGIQSLYGDPKENQRLPNPDNSEPALCDPNLSFDAVTTVGNKIFFFKDRFFWLKVSERPKTSVNLISSLWPTLPSGIEAAYEIEARNQVFLFKDDKYWLISNLRPEPNYPKSIHSFGFPNFVKKIDAAVFNPRFYRTYFFVDNQYWRYDERRQMMDPGYPKLITKNFQGIGPKIDAVFYSKNKYYYFFQGSNQFEYDFLLQRITKTLKSNSWFGC
Q: Which Percent cleavage [1] does the source give for B3 here?
A: The Percent cleavage was 0%.

Q: And the Percent cleavage [2]?
A: The Percent cleavage was 48%.

Q: And the Percent cleavage [3]?
A: The Percent cleavage was 9%.

Q: What about the Percent cleavage [4] of the same protein?
A: The Percent cleavage was 51%.

Q: What about the Percent cleavage [5] of the same protein?
A: Its Percent cleavage is 62%.

Q: And the Percent cleavage [6]?
A: The Percent cleavage was 9%.

Q: What about the Percent cleavage [7] of the same protein?
A: The Percent cleavage was 0%.

Q: And the Percent cleavage [8]?
A: The Percent cleavage was 36%.

Q: What about the Percent cleavage [9] of the same protein?
A: Its Percent cleavage is 16%.

Q: And the Percent cleavage [10]?
A: The Percent cleavage was 0%.

Q: And the Percent cleavage [11]?
A: The Percent cleavage was 49%.

Q: What about the Percent cleavage [12] of the same protein?
A: Its Percent cleavage is 68%.

Q: And the Percent cleavage [13]?
A: Its Percent cleavage is 0%.

Q: And the Percent cleavage [14]?
A: Its Percent cleavage is 0%.

Q: And the Percent cleavage [15]?
A: Its Percent cleavage is 0%.

Q: And the Percent cleavage [16]?
A: The Percent cleavage was 30%.

Q: And the Percent cleavage [17]?
A: Its Percent cleavage is 12%.

Q: And the Percent cleavage [18]?
A: Its Percent cleavage is 72%.

Q: And the Percent cleavage [19]?
A: The Percent cleavage was 68%.

Q: And the Percent cleavage [20]?
A: Its Percent cleavage is 19%.

Q: And the Percent cleavage [21]?
A: The Percent cleavage was 51%.

Q: What about the Percent cleavage [22] of the same protein?
A: Its Percent cleavage is 36%.

Q: And the Percent cleavage [23]?
A: The Percent cleavage was 18%.

Q: What about the Percent cleavage [24] of the same protein?
A: Its Percent cleavage is 31%.

Q: And the Percent cleavage [25]?
A: Its Percent cleavage is 0%.

Q: What about the Percent cleavage [26] of the same protein?
A: Its Percent cleavage is 34%.

Q: And the Percent cleavage [27]?
A: Its Percent cleavage is 64%.

Q: And the Percent cleavage [28]?
A: The Percent cleavage was 16%.

Q: And the Percent cleavage [29]?
A: The Percent cleavage was 0%.

Q: And the Percent cleavage [30]?
A: The Percent cleavage was 63%.

Q: And the Percent cleavage [31]?
A: Its Percent cleavage is 33%.

Q: What about the Percent cleavage [32] of the same protein?
A: Its Percent cleavage is 31%.

Q: What about the Percent cleavage [33] of the same protein?
A: Its Percent cleavage is 26%.

Q: What about the Percent cleavage [34] of the same protein?
A: Its Percent cleavage is 91%.

Q: And the Percent cleavage [35]?
A: The Percent cleavage was 13%.

Q: What about the Percent cleavage [36] of the same protein?
A: The Percent cleavage was 18%.

Q: And the Percent cleavage [37]?
A: Its Percent cleavage is 71%.
